From article PMC3715405 come the findings set out here.

As a reminder, the stoichiometry N is a count of units in the complex or per binding partner.

This assay concerns the target T1, WT tetherin (human tetherin internally tagged with an HA epitope at amino acid 155) (human), Q10589.
T1 chain: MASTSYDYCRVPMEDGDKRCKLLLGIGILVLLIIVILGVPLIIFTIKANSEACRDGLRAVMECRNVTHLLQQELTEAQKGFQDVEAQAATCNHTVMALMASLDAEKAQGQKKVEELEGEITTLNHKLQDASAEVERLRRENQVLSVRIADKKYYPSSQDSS
In words: non-reducing SDS-PAGE and western blot; lysates of 293T cells cotransfected with HIV-1 ΔVpu proviral plasmid and tetherin plasmids, lysed in non-reducing buffer, probed with anti-HA; shows disulphide-linked dimers. Particulars: remark: other sources report otherwise. (In western blotting, separated proteins are transferred to a membrane and probed.)

B1: WT tetherin (human tetherin internally tagged with an HA epitope at amino acid 155), Q10589 1-161 (natural protein)
chain: MASTSYDYCRVPMEDGDKRCKLLLGIGILVLLIIVILGVPLIIFTIKANSEACRDGLRAVMECRNVTHLLQQELTEAQKGFQDVEAQAATCNHTVMALMASLDAEKAQGQKKVEELEGEITTLNHKLQDASAEVERLRRENQVLSVRIADKKYYPSSQDSS
modifications: here or on the partner: glycosylphosphatidylinositol (GPI) membrane anchor at the C-terminus; heterogeneously glycosylated; glycosylphosphatidylinositol (GPI) membrane anchor at the C-terminus; heterogeneously glycosylated
In the case of B1, the stoichiometry N worked out at 2.
